These results are taken from publication PMC3307893.

In this assay the target is Anaphase-Promoting Complex/Cyclosome (APC), Xenopus, immunoprecipitated on Cdc27 antibody beads (Xenopus (endogenous in egg extract)). In words: pull-down.

For “double HA-tagged human Cdc20, wild type (from UniProt Q12834 1-499) (natural protein)”, the percent of the deubiquitinated Cdc20 bound to the APC came out at 47%.
